Test results reported in patent US20240018240A1 (Hoffmann-La Roche, published 2024).

Assays:
[1] = molecular target: T1, Human PLAP (soluble, as injected in SPR) (human, UniProt P05187 23-506); experiment: SPR RAC assay (Biacore T200, 25°C); TCB captured by anti-PG antibody on CM3 chip, 100 nM human PLAP injected
T1 construct: also called PLAP target
Experimental: (§1) SPR experiments were performed on a Biacore T200 instrument (GE Healthcare). For the immobilization. HBS-N pH 7.4 was used as a running buffer (Cytiva #BR100670). Anti-PG antibody (see Example 3) was immobilized by amine coupling (using amine coupling kit, Cytiva #BR100050) at a density of >6000 RU on a CM3 Chip (Cytiva #29104990). The anti-PG antibody stock solution was diluted to a concentration of 25 μg/mL in a 10 mM sodium acetate buffer of pH 5.0 (Cytiva #BR100351). After the immobilization the analysis was performed at 25° C., and using PBS-P+ (Cytiva #28995084) as a running and a dilution buffer. The 5 nM solutions of TCB molecule samples in PBS-P+ were captured for 30 sec at a flow rate 5 μl/min. Then a 100 nM solution of human PLAP was injected for 90 sec association time and 30 sec dissociation time at a flow rate of 8 μl/min. Thereafter, a 200 nM solution of human CD3ε/δ (see Example 3, SEQ ID NOs 24 and 25) was injected for 90 sec association time and 30 sec dissociation time at a flow rate of 8 μl/min. The regeneration of the surface followed by two 60 sec regeneration steps with a 10 mM NaOH solution. The data were analyzed with the Biacore T200 Evaluation and Excel software. For the calculation of relative active concentration (RAC) the binding report point (BRP) was used. To calculate the RAC, the target and antibody concentrations were referenced to the unstressed sample (−80° C.) as 100% comparison. For the normalization of the protein concentration, reference was made to anti-PG antibody capturing (RAC values).

[2] = molecular target: T2, Human CD3ε stalk-Fc(knob)-Avi/CD3δ stalk-Fc(hole) (human); experiment: SPR single cycle kinetics (Biacore T200, 25°C); TCB captured by anti-PG antibody on CM3 chip, human CD3ε/δ as analyte
T2 construct: Heterodimer of CD3 delta and CD3 epsilon ectodomains fused to a human Fc domain with knob-into-hole modifications and C-terminal Avi-tag; also called human CD3ε/δ; CD3ε/δ
Experimental: (§2) The binding kinetics of the PLAP TCB molecules generated in Example 17 were characterized by the single cycle kinetic (SSK) assay. For this assay, again the SPR Biacore T200 was used. The immobilization was performed at 25° C. with HBS-N pH 7.4 as a running buffer (Cytiva #BR100670). The anti-PG antibody (see Example 3) was immobilized by amine coupling (using amine coupling kit, Cytiva #BR100050) at a density of >5000 RU on a CM3 Chip (Cytiva #29104990). The anti-PG antibody stock solution was diluted to a concentration of 25 μg/mL in a 10 mM sodium acetate buffer of pH 5.0 (Cytiva #BR100351). After the immobilization the analysis was performed at 25° C., and PBS-P+(Cytiva #28995084) was used as a running and a dilution buffer. The 3 nM solutions of TCB molecule samples in PBS-P+ were captured with anti-PG antibody on a CM3 sensor chip.
(§3) The derived kinetic rate constants and corresponding affinity values (equilibrium dissociation constant KD) are summarized in Table 26 for the CD3 binder and in Table 27 for the PLAP binder. The data were analyzed with the Biacore T200 Evaluation and Excel software.

[3] = molecular target: T1, Human PLAP (soluble, as injected in SPR); experiment: SPR single cycle kinetics (Biacore T200, 25°C); TCB captured by anti-PG antibody on CM3 chip, human PLAP as analyte
Experimental: as §2, §3

[4] = molecular target: T2, Human CD3ε stalk-Fc(knob)-Avi/CD3δ …; experiment: SPR (Biacore T200, 25°C); TCB captured by anti-PG antibody on CM5 chip, 300 nM human CD3ε/δ injected; relative active concentration
Experimental: SPR experiments were performed on a Biacore T200 instrument (GE Healthcare) at 25° C. with HBS-P+(10 mM HEPES, 150 mM NaCl pH 7.4, 0.05% Surfactant P20) as running and dilution buffer. Anti-PG antibody (see Example 3) was immobilized by amine coupling (using amine coupling kit, Cytiva #BR100050) at a density of >6000 RU on a CM5 Chip (Sensor Chip CM5, Cytiva #29104988). The 10 nM solutions of TCB molecule samples in HBS-P+ were captured for 30 sec at a flow rate 10 μl/min. Then a 300 nM solution of human CD3ε/δ (see Example 3, SEQ ID NOs 24 and 25) was injected for 150 sec association time and 120 sec dissociation time at a flow rate of 10 μl/min. The regeneration of the surface followed by a 35 sec regeneration step with a 20 mM NaOH solution. The data were analyzed with the Biacore T200 Evaluation and Excel software. For the calculation of relative active concentration (RAC) the binding report point (BRP) was used (the BRP is a standard readout point in SPR, maximum response (unit/value) of interaction between antigen and antibody).

[5] = molecular target: human ALPG (ALPPL2) expressed on CHO-K1 cells (human, UniProt P10696 20-503); experiment: cell-based or functional assay
[6] = molecular target: T3, human PLAP (ALPP) expressed on CHO-K1 cells (human, UniProt P05187 23-506); experiment: cell-based or functional assay
T3 sequence (P05187 23-506): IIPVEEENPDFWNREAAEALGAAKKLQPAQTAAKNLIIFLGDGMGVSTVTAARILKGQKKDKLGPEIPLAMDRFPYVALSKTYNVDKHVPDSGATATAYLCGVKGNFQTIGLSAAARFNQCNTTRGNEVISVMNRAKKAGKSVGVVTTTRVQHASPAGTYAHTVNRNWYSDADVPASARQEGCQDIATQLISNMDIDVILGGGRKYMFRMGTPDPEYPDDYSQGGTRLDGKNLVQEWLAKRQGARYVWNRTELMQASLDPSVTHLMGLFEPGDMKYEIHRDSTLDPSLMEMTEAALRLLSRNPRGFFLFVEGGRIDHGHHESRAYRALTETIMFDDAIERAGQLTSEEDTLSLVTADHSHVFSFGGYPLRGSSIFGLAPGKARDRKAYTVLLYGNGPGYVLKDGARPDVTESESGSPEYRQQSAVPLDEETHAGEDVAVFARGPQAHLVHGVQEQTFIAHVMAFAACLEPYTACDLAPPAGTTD

[7] = molecular target: T3, human PLAP (ALPP) expressed on CHO-K1 …; experiment: cell-based or functional assay; remark: listed apart in the source
[8] = molecular target: T4, cynomolgus PLAP (ALPP) expressed on CHO-K1 cells (cynomolgus, UniProt P05187 23-452 (human entry)); experiment: cell-based or functional assay
T4 chain: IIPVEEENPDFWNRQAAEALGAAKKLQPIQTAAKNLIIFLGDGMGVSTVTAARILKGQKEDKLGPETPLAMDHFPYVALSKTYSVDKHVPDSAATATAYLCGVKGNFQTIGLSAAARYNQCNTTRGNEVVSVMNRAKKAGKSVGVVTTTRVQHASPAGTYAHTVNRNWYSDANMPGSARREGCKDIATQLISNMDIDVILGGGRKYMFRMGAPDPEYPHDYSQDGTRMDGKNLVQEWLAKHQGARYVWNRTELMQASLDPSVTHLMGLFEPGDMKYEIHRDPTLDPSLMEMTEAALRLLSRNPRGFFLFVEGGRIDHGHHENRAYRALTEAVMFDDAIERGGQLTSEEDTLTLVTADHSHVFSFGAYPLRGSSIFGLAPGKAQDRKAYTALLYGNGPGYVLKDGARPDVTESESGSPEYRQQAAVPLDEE

[9] = molecular target: T2, Human CD3ε stalk-Fc(knob)-Avi/CD3δ …; experiment: SPR RAC assay (Biacore T200, 25°C); TCB captured by anti-PG antibody on CM3 chip, 200 nM human CD3ε/δ injected after 100 nM human PLAP
Experimental: as §1

T1 sequence (P05187 23-506 limits assumed): as the sequence (P05187 23-506) above

B1: PLAP H3 CD3 P035.093 TCB (bispecific antibody, human IgG1, kappa, L234A L235A)
heavy 1: not shown
heavy 2: QVQLQESGPGLVKPSETLSLTCTVSGFSLTSYGVSWIRQPPGKGLEWIGVIWEDGSTNYNPSLKSRVTISVDTSKNQFSLKLSSVTAADTAVYYCARPHYGSSYVGAMEYWGAGTTVTVSSASTKGPSVFPLAPSSKSTSGGTAALGCLVEDYFPEPVTVSWNSGALTSGVHTFPAVLQSSGLYSLSSVVTVPSSSLGTQTYICNVNHKPSNTKVDEKVEPKSCDKTHTCPPCPAPEAAGGPSVFLFPPKPKDTLMISRTPEVTCVVVDVSHEDPEVKFNWYVDGVEVHNAKTKPREEQYNSTYRVVSVLTVLHQDWLNGKEYKCKVSNKALGAPIEKTISKAKGQPREPQVCTLPPSRDELTKNQVSLSCAVKGFYPSDIAVEWESNGQPENNYKTTPPVLDSDGSFFLVSKLTVDKSRWQQGNVFSCSVMHEALHNHYTQKSLSLSP
light 1: DIQMTQSPSSLSASVGDRVTITCRASENIYSYVAWYQQKPGKAPKLLIYNAKSLASGVPSRFSGSGSGTDFTLTISSLQPEDFATYYCQHHYVSPWTFGGGTKLEIKRTVAAPSVFIFPPSDRKLKSGTASVVCLLNNFYPREAKVQWKVDNALQSGNSQESVTEQDSKDSTYSLSSTLTLSKADYEKHKVYACEVTHQGLSSPVTKSFNRGEC
light 2: EVQLLESGGGLVQPGGSLRLSCAASGFTFSSYAMNWVRQAPGKGLEWVSRIRSKYNNYATYYADSVKGRFTISRDDSKNTLYLQMNSLRAEDTAVYYCVRASNFPASYVSYFAYWGQGTLVTVSSASVAAPSVFIFPPSDEQLKSGTASVVCLLNNFYPREAKVQWKVDNALQSGNSQESVTEQDSKDSTYSLSSTLTLSKADYEKHKVYACEVTHQGLSSPVTKSFNRGEC
notes: 2+1 IgG CrossFab, inverted; also called PLAP H3 TCB; PLAP (H3) TCB
RAC [%] PLAP binding, stress A [1]: 100%
RAC [%] PLAP binding, stress B [1]: 100%
RAC [%] PLAP binding, unstressed [1]: 100%
Kd [2]: 500 pM
koff [2]: 0.000933 s⁻¹
kon [2]: 2.09e+06 M⁻¹ s⁻¹
Kd [3]: 5.1 pM
koff [3]: 2.22e-05 s⁻¹
kon [3]: 4.33e+06 M⁻¹ s⁻¹
RAC % of CD3 binding, stress A [4]: 99%
RAC % of CD3 binding, stress B [4]: 97%
RAC % of CD3 binding, unstressed [4]: 100%
EC50 (pM), Jurkat NFAT reporter assay (luminescence, 6 h) [5]: 35 pM
EC50 (pM), Jurkat NFAT reporter assay (luminescence, 6 h) [6]: 35 pM
EC50 (pM), Jurkat NFAT reporter assay to show cynomolgus cross-reactivity [7]: 98 pM
EC50 (pM), Jurkat NFAT reporter assay to show cynomolgus cross-reactivity [8]: 48 pM
RAC [%] CD3 binding, stress A [9]: 99%
RAC [%] CD3 binding, stress B [9]: 98%
RAC [%] CD3 binding, unstressed [9]: 100%
